Assay results published in PMC9468336, “The choanoflagellate pore-forming lectin SaroL-1 punches holes in cancer cells by targeting the tumor-related glycosphingolipid Gb3” (Communications Biology, 2022).
Values joined by “and” are separate entries in the source; they are usually repeats but may differ in a detail not shown here. Identical values can stand only once.

Columns and labels:
[1] = Dextran influx into GUVs (pore formation); assay type: biochemical; conditions: for GUVs filled with dextran-AF488, average %: 3 kDa dextran; for GUVs filled with 70 kDa FITC-dextran, average %: 70 kDa dextran
Excerpt: (§1) GUVs were composed of 1,2-dioleoyl-sn-glycero-3-phosphocholine (DOPC), cholesterol (both AvantiPolar Lipids, United States), Atto 647 N 1,2-dioleoyl-sn-glycero-3-phosphoethanolamine (DOPE; Sigma-Aldrich), and one of the following glycolipids at a molar ratio of 64.7:30:0.3:5. The glycolipids are globotriaosylceramide (Gb3, Matreya), FSL-Gb3 (Function-Spacer-Lipid with globotriaosyl saccharide), and corresponding FSL-isoGb3 (Function-Spacer-Lipid with iso-globotriaosyl saccharide) synthetized as previously described[84],[85], FSL-A(tri) (Function-Spacer-Lipid with blood group A trisaccharide; Sigma-Aldrich), FSL-B(tri) (Function-Spacer-Lipid with blood group B trisaccharide; Sigma-Aldrich) or lactosylceramide (LC, Sigma-Aldrich).
GUVs were prepared by the electroformation method as earlier described. Briefly, lipids dissolved in chloroform of a total concentration of 0.5 mg/mL were spread on indium tin oxid-covered (ITO) glass slides and dried in a vacuum for at least 1 h or overnight. Two ITO slides were assembled to create a chamber filled with sucrose solution adapted to the osmolarity of the imaging buffer of choice, either HBSS (live-cell imaging) or PBS (GUVs only imaging). Then, an alternating electrical field with a field strength of 1 V/mm was implemented for 2.5 h at RT. Later we observed the GUVs in chambers manually built as described.
Dextran Alexa Fluor 488 (Dextran-AF488) with a MW of 3 kDa (Thermo Fischer) or 70 kDa FITC-dextran (Sigma-Aldrich) was added to the observation chamber (0.02 mg/mL) in PBS buffer together with 200 nM SaroL-1. Then wt Gb3-containing GUVs (40 µL) were added for imaging and monitoring of pore-formation. Dextran-AF488 was present in the GUVs’ surrounding solution. For PNPG treatment, 200 nM of SaroL-1 was pre-incubated with 10 mM PNPG dissolved in DMSO for 15 min at RT in the observation chamber. Directly after, dextran-AF488 (0.02 mg/mL) and 40 µL wt Gb3-containing GUVs were added to the observation chamber and monitored using confocal microscopy.

[2] = system: H1299 cells; assay: Cell proliferation (MTT) assay; assay type: cell-based, human
Procedure: (§2) The human lung epithelial cell line H1299 (American Type Culture Collection, CRL-5803) was cultured in a complete medium, consisting of Roswell Park Memorial Institute (RPMI) medium supplemented with 10% fetal calf serum (FCS) and 2 mM L-glutamine at 37 °C and 5% CO2. Cells were stimulated with different concentrations of SaroL-1 in a complete medium for indicated time points.
To investigate the cytotoxic effect of SaroL-1 on human cells, H1299 cells were treated with increasing concentrations of SaroL-1 for 24 h in a standard MTT assay. For the depletion of Gb3 from the plasma membrane, H1299 cells were treated with 2 µM PPMP for 72 h before the experiment. 3.5 × 10^4 cells per well were transferred to a 96-well plate with a U-bottom. The cells were centrifuged at 1600 × g for 3 min at RT. The cell pellet was re-suspended in 100 μL of variously concentrated protein solutions (3, 14, 27, 68, 135, 270, 680, 1360 nM) and transferred to a 96-well flat-bottomed plate. The cells were incubated for 24 h at 37 °C. Subsequently, 10 μL of MTT labelling solution (MTT Cell Proliferation Kit, Roche) was added to each well, and the cells were incubated for 4 h at 37 °C. Then, 100 μL of the solubilisation reagent was added to each well, and the plate was incubated at 37 °C overnight. The next day, the absorbance of the samples was measured at 550 nm using a BioTek microplate reader. To assess SaroL-1 cytotoxicity in the presence of the soluble sugar PNPG, 3.5 × 10^4 cells per well were transferred to a 96-well plate with a U-bottom. Variously concentrated protein solutions (3, 14, 27, 68, 135, 270, 680, 1360 nM) were preincubated with 10 mM PNPG dissolved in complete medium, for 15 min at RT. The cells were centrifuged at 1600 × g for 3 min at RT. Next, the cell pellet was re-suspended in 100 μL protein solution and transferred to a 96-well flat-bottomed plate. The cells were incubated for 24 h at 37 °C, and the MTT assay was performed as described above. The data was further analyzed using GraphPad Prism software.

[3] = Confocal imaging of SaroL-1 binding to FSL-A GUVs; conditions: 200 nM SaroL-1, FSL-A GUVs
Excerpt: as §1
GUVs were prepared by the electroformation method as earlier described. Briefly, lipids dissolved in chloroform of a total concentration of 0.5 mg/mL were spread on indium tin oxid-covered (ITO) glass slides and dried in a vacuum for at least 1 h or overnight. […]
Samples of GUVs and SaroL-1 were imaged using a confocal fluorescence microscope (Nikon Eclipse Ti-E inverted microscope equipped with Nikon A1R confocal laser scanning system, 60x oil immersion objective, NA = 1.49 and four laser lines: 405 nm, 488 nm, 561 nm, and 640 nm). […]

[4] = system: H1299 cells; assay: Lactate dehydrogenase (LDH) assay; assay type: cell-based, human; conditions: 271 nM and 1.36 µM SaroL-1, 2 and 4 h
Procedure: as §2
This assay was used to monitor rapid changes in cell viability following the formation of pores induced by SaroL-1. Prior to running the assay, kit components were assembled according to CyQuant^TM LDH Cytotoxicity assay kit (Invitrogen—Thermo Fisher Scientific) manufacturer´s instructions. 1 × 10^4 cells per well were plated in 100 µL in triplicates in a 96-well plate with a flat bottom and allowed to adhere overnight. […] After 30 min\ of incubation at room temperature and in absence of light, 50 µL of Stop solution were added to each well and the absorbance of samples was recorded at 490 nm and 680 nm using a BioTek microplate reader. To determine LDH activity, the reference absorbance at […] (background) was subtracted from the 490 nm absorbance values before calculation of % cytotoxicity. % cytotoxicity was calculated according to the following formula = [SaroL-1-treated LDH activity − spontaneous LDH activity]/[maximum LDH activity − spontaneous LDH activity] × 100.

[5] = 200 nM SaroL-1, 30 min, listed as SaroL1
[6] = 200 nM SaroL-1, 120 min, listed as SaroL1

O=[N+]([O-])c1ccc(O[C@H]2O[C@H](CO)[C@H](O)[C@H](O)[C@H]2O)cc1 [PNPG, p-nitrophenyl-α-D-galactopyranoside]
GUVs filled with dextran-AF488, average % ([1]; 200 nM SaroL-1 pre-treated with 10 mM PNPG, 0 min): 0%
GUVs filled with dextran-AF488, average % ([1]; 200 nM SaroL-1 pre-treated with 10 mM PNPG, 60 min): 0.4205%
GUVs filled with dextran-AF488, average % ([1]; 200 nM SaroL-1 pre-treated with 10 mM PNPG, 120 min): 4% and 4.251%
reduction of SaroL-1-induced cell death ([2]; SaroL-1 (3-1358 nM) pre-incubated with 10 mM PNPG, 24 h): > 90%

B1: SaroL-1: Recombinant pore-forming lectin of Salpingoeca rosetta (UniProt F2UID9, 329 amino acids) with β-trefoil and aerolysin-like domains (protein)
chain: MSSTFEPATDSPLPVPGVQYFLQHVQSGKYVHPHGGSDMPGNDTALVLHHGFDEKRDALRWVFVNDAENKHQLKHYSSGKFVHPKGGKVGKEATLVVHSSPGRPETMIEMVQEDGRTYLRHTDSDYYVHPHGGSPNPGDNTRLVYYSGYRPSLAFLAIPAETLFVDRIEIHQAQALESINTITSLSDEHRNDTDQPVQTSISVALEESLQDSAQLSFERCFGLKVGSEFEVGLPLVGKTKVSVQFSGSWKSSTIKGEVRTSAVKVQINEHVTIPPGKCVQIRIDTRRCTKTAPATMYLRTASGIEVQRETTVTSTYHYDQEVHVVPVTN
modifications: left off: His6, N-terminal, state not stated
notes: Recombinant pore-forming lectin of Salpingoeca rosetta (UniProt F2UID9, 329 amino acids) with β-trefoil and aerolysin-like domains
binding to GUVs [3]: No binding
GUVs filled with dextran-AF488, average % ([1]; 200 nM SaroL-1, 0 min): 11.106%
GUVs filled with dextran-AF488, average % ([1]; 200 nM SaroL-1, 30 min): 45%
GUVs filled with dextran-AF488, average % [1, 5]: 45.1678%
GUVs filled with dextran-AF488, average % ([1]; 200 nM SaroL-1, 60 min): 57.8615%
GUVs filled with dextran-AF488, average % ([1]; 200 nM SaroL-1, 120 min): 69%
GUVs filled with dextran-AF488, average % [1, 6]: 69.3211%
GUVs filled with 70 kDa FITC-dextran, average % ([1]; 200 nM SaroL-1, 0 min): 4.422%
GUVs filled with 70 kDa FITC-dextran, average % ([1]; 200 nM SaroL-1, 30 min): 17%
GUVs filled with 70 kDa FITC-dextran, average % [1, 5]: 16.9551%
GUVs filled with 70 kDa FITC-dextran, average % ([1]; 200 nM SaroL-1, 60 min): 29%
GUVs filled with 70 kDa FITC-dextran, average % ([1]; 200 nM SaroL-1, 60 min, listed as SaroL1): 28.4248%
GUVs filled with 70 kDa FITC-dextran, average % ([1]; 200 nM SaroL-1, 120 min): 29%
GUVs filled with 70 kDa FITC-dextran, average % [1, 6]: 29.7507%
reduction of cell viability ([2]; 24 h, 1.36 µM SaroL-1): ~ 87%
IC50 ([2]; 24 h, FCS-containing medium, read-out: concentration at which the percentage of viable cells decreased by half): 271 nM
cytotoxicity on Gb3-depleted cells (in words) ([2]; H1299 pre-treated with PPMP for 72 h, 24 h with SaroL-1): remarkably reduced
LDH release / membrane damage (in words) [4]: induced acute cytotoxicity
